Assay results as given in PMC10397247.

Experiments:
Test in all cases: two-hybrid library CCmax;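 note: natural log of median RNA to DNA barcode read ratio; higher means stronger binding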
P2-AA-1HGe-A = target: T1, P2-AA-1HGe-A; details: mean of both orientations
T1 chain: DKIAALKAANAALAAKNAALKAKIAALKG

P2-AA-1HGe-D = target: T2, P2-AA-1HGe-D; details: mean of both orientations
T2 chain: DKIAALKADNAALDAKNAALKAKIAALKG

P2-AA-1HGe-M = target: T3, P2-AA-1HGe-M; details: mean of both orientations
T3 chain: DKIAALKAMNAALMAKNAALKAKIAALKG

P2-AA-1HGe-Q = target: T4, P2-AA-1HGe-Q; details: mean of both orientations
T4 chain: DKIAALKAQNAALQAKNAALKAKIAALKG

P2-AA-1HGe-T = target: T5, P2-AA-1HGe-T; details: mean of both orientations
T5 chain: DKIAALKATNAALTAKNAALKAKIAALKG

P2-AA-1HGe-W = target: T6, P2-AA-1HGe-W; details: mean of both orientations
T6 chain: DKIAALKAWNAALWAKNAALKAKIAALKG

P2-AA = target: T7, P2-AA; details: mean of both orientations
T7 chain: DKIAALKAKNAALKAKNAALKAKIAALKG

P1-AA = target: T8, P1-AA
T8 chain: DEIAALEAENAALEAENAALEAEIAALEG

P10-AA = target: T9, P10-AA; details: mean of both orientations
T9 chain: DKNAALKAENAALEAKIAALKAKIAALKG

P11-AA = target: T10, P11-AA; details: mean of both orientations
T10 chain: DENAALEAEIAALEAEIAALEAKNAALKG

P12-AA = target: T11, P12-AA; details: mean of both orientations
T11 chain: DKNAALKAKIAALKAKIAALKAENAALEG

P2-AA-12HAA-D = target: T12, P2-AA-12HAA-D; details: mean of both orientations
T12 chain: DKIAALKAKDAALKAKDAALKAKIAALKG

P2-AA-12HAA-E = target: T13, P2-AA-12HAA-E; details: mean of both orientations
T13 chain: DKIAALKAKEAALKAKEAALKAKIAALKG

P2-AA-12HAA-H = target: T14, P2-AA-12HAA-H; details: mean of both orientations
T14 chain: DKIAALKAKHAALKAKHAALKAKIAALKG

P2-AA-12HAA-I = target: T15, P2-AA-12HAA-I; details: mean of both orientations
T15 chain: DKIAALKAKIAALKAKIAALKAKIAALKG

P2-AA-12HAA-K = target: T16, P2-AA-12HAA-K; details: mean of both orientations
T16 chain: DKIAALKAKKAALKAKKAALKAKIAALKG

P2-AA-12HAA-L = target: T17, P2-AA-12HAA-L; details: mean of both orientations
T17 chain: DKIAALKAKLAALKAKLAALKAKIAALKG

P2-AA-12HAA-R = target: T18, P2-AA-12HAA-R; details: mean of both orientations
T18 chain: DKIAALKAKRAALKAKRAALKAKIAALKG

P2-AA-12HAA-S = target: T19, P2-AA-12HAA-S; details: mean of both orientations
T19 chain: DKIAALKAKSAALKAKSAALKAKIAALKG

P2-AA-12HAA-T = target: T20, P2-AA-12HAA-T; details: mean of both orientations
T20 chain: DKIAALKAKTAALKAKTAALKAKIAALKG

P2-AA-12HAA-V = target: T21, P2-AA-12HAA-V; details: mean of both orientations
T21 chain: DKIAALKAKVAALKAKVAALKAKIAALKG

P2-AA-12HAA-Y = target: T22, P2-AA-12HAA-Y; details: mean of both orientations
T22 chain: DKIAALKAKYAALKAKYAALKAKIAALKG

P2-AA-12HGe-A = target: T23, P2-AA-12HGe-A; details: mean of both orientations
T23 chain: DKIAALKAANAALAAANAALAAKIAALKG

P2-AA-12HGe-D = target: T24, P2-AA-12HGe-D; details: mean of both orientations
T24 chain: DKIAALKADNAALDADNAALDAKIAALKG

P2-AA-12HGe-E = target: T25, P2-AA-12HGe-E; details: mean of both orientations
T25 chain: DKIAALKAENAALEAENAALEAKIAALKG

P2-AA-12HGe-H = target: T26, P2-AA-12HGe-H; details: mean of both orientations
T26 chain: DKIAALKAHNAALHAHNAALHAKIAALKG

P2-AA-12HGe-M = target: T27, P2-AA-12HGe-M; details: mean of both orientations
T27 chain: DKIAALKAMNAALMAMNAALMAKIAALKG

P2-AA-12HGe-Q = target: T28, P2-AA-12HGe-Q; details: mean of both orientations
T28 chain: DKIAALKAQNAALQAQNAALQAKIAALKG

P2-AA-12HGe-R = target: T29, P2-AA-12HGe-R; details: mean of both orientations
T29 chain: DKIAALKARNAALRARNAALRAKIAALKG

P2-AA-12HGe-S = target: T30, P2-AA-12HGe-S; details: mean of both orientations
T30 chain: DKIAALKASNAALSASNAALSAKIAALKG

P2-AA-12HGe-T = target: T31, P2-AA-12HGe-T; details: mean of both orientations
T31 chain: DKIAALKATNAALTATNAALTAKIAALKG

P2-AA-12HGe-W = target: T32, P2-AA-12HGe-W; details: mean of both orientations
T32 chain: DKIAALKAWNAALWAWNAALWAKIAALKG

P2-AA-1HAA-D = target: T33, P2-AA-1HAA-D; details: mean of both orientations
T33 chain: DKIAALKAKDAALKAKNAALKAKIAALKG

P2-AA-1HAA-E = target: T34, P2-AA-1HAA-E; details: mean of both orientations
T34 chain: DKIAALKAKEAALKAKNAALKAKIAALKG

P2-AA-1HAA-H = target: T35, P2-AA-1HAA-H; details: mean of both orientations
T35 chain: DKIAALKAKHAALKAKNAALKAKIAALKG

P2-AA-1HAA-I = target: T36, P2-AA-1HAA-I; details: mean of both orientations
T36 chain: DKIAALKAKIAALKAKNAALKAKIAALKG

P2-AA-1HAA-R = target: T37, P2-AA-1HAA-R; details: mean of both orientations
T37 chain: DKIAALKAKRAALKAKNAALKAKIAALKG

P2-AA-1HAA-S = target: T38, P2-AA-1HAA-S; details: mean of both orientations
T38 chain: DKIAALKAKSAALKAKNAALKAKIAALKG

P2-AA-1HAA-T = target: T39, P2-AA-1HAA-T; details: mean of both orientations
T39 chain: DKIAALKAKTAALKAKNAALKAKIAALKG

P2-AA-1HAA-V = target: T40, P2-AA-1HAA-V; details: mean of both orientations
T40 chain: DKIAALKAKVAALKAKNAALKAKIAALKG

P3-AA = target: T41, P3-AA; details: mean of both orientations
T41 chain: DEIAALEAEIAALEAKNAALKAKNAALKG

P4-AA = target: T42, P4-AA; details: mean of both orientations
T42 chain: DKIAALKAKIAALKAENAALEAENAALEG

P7-AA = target: T43, P7-AA; details: mean of both orientations
T43 chain: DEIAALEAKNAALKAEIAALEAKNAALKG

P8-AA = target: T44, P8-AA; details: mean of both orientations
T44 chain: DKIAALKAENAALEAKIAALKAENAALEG

P9-AA = target: T45, P9-AA; details: mean of both orientations
T45 chain: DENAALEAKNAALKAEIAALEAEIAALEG

zCON9_A = target: T46, zCON9_A
T46 chain: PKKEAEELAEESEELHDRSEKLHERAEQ

zCON9_B = target: T47, zCON9_B; details: mean of both orientations
T47 chain: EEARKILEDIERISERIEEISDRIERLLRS

zCON9_D = target: T48, zCON9_D; details: mean of both orientations
T48 chain: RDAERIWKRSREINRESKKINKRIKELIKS

DEIAALEAMNAALMAENAALEAEIAALEG [P1-AA-1HGe-M]
interaction score (P2-AA-1HGe-A): 2.28 | interaction score (P2-AA-1HGe-D): 2.01 | interaction score (P2-AA-1HGe-M): 2.29 | interaction score (P2-AA-1HGe-Q): 1.9 | interaction score (P2-AA-1HGe-T): 1.98 | interaction score (P2-AA-1HGe-W): 2.3 | interaction score (P2-AA): 2.14

DEIAALEAENAALEAENAALEAEIAALEG [P1-AA]
interaction score (P1-AA): -1.9 | interaction score (P10-AA): -0.307 | interaction score (P11-AA): -1.27 | interaction score (P12-AA): -0.335 | interaction score (P2-AA-12HAA-D): -1.91 | interaction score (P2-AA-12HAA-E): -0.168 | interaction score (P2-AA-12HAA-H): 1.67 | interaction score (P2-AA-12HAA-I): 1.38 | interaction score (P2-AA-12HAA-K): 1.32 | interaction score (P2-AA-12HAA-L): 0.342 | interaction score (P2-AA-12HAA-R): 1.86 | interaction score (P2-AA-12HAA-S): 1.74 | interaction score (P2-AA-12HAA-T): 1.34 | interaction score (P2-AA-12HAA-V): 1.26 | interaction score (P2-AA-12HAA-Y): 1.57 | interaction score (P2-AA-12HGe-A): 1.83 | interaction score (P2-AA-12HGe-D): -1.71 | interaction score (P2-AA-12HGe-E): 0.914 | interaction score (P2-AA-12HGe-H): 2.06 | interaction score (P2-AA-12HGe-M): 1.8 | interaction score (P2-AA-12HGe-Q): 1.62 | interaction score (P2-AA-12HGe-R): 2.37 | interaction score (P2-AA-12HGe-S): 0.568 | interaction score (P2-AA-12HGe-T): 1.19 | interaction score (P2-AA-12HGe-W): 1.66 | interaction score (P2-AA-1HAA-D): 1.71 | interaction score (P2-AA-1HAA-E): 1.78 | interaction score (P2-AA-1HAA-H): 2.1 | interaction score (P2-AA-1HAA-I): 2.01 | interaction score (P2-AA-1HAA-R): 1.51 | interaction score (P2-AA-1HAA-S): 1.81 | interaction score (P2-AA-1HAA-T): 1.69 | interaction score (P2-AA-1HAA-V): 1.86 | interaction score (P2-AA-1HGe-A): 2.03 | interaction score (P2-AA-1HGe-D): 1.9 | interaction score (P2-AA-1HGe-M): 1.87 | interaction score (P2-AA-1HGe-Q): 1.97 | interaction score (P2-AA-1HGe-T): 2.12 | interaction score (P2-AA-1HGe-W): 2.42 | interaction score (P2-AA): 2.11 | interaction score (P3-AA): -0.804 | interaction score (P4-AA): -1.71 | interaction score (P7-AA): -1.7 | interaction score (P8-AA): -1.57 | interaction score (P9-AA): -1.49 | interaction score (zCON9_A): -1.8 | interaction score (zCON9_B): -1.67 | interaction score (zCON9_D): -2.59
